B1: mAb 12G3H11, human anti-human EphA2 monoclonal antibody, wild type hinge (antibody, human IgG1, V domains shown)
VH: QMQLVQSGPEVKKPGTSVKVSCKASGFTFDDYSMNWVRQARGQRLEWIGFIRNKANDYTTEYADSVKGRVTITRDMSTSTAYMELSSLRSEDTAVYYCARYPRHHAMDSWGQGTSVTVSS
VL: DIQMTQSPSSLSASVGDRVTITCRASQSISNNLHWYQQKPGKAPKLLIKYAFQSISGVPSRFSGSGSGTDFTFTISSLQPEDFATYYCQQANSWPLTFGGGTKVEIK
notes: Human IgG1/kappa expressed in HEK 293 cells; also called Wild type (12G3H11); 12G3H11 “wild type”; not shown: human kappa light chain constant region
B2: 12G3H11 Fc variant 5-GGG Insert Low (antibody, IgG1)
heavy (part 1 of 2): QMQLVQSGPEVKKPGTSVKVSCKASGFTFDDYSMNWVRQARGQRLEWIGFIRNKANDYTTEYADSVKGRVTITRDMSTSTAYMELSSLRSEDTAVYYCARYPRHHAMDSWGQGTSVTVSS
heavy (part 2 of 2): not shown
light: DIQMTQSPSSLSASVGDRVTITCRASQSISNNLHWYQQKPGKAPKLLIKYAFQSISGVPSRFSGSGSGTDFTFTISSLQPEDFATYYCQQANSWPLTFGGGTKVEIK
notes: domain: lower hinge, CH2, CH3; 12G3H11 IgG1/kappa; GGG inserted between P227 and P228; not shown: human IgG1 heavy chain constant region, CH1 up to EU 215; human IgG1 heavy chain constant region from EU 231 (lower hinge, CH2, CH3); human kappa light chain constant region
B3: 12G3H11 Fc variant 11-4 AA Delete (antibody, IgG1)
heavy (part 1 of 2): QMQLVQSGPEVKKPGTSVKVSCKASGFTFDDYSMNWVRQARGQRLEWIGFIRNKANDYTTEYADSVKGRVTITRDMSTSTAYMELSSLRSEDTAVYYCARYPRHHAMDSWGQGTSVTVSS
heavy (part 2 of 2): not shown
light: DIQMTQSPSSLSASVGDRVTITCRASQSISNNLHWYQQKPGKAPKLLIKYAFQSISGVPSRFSGSGSGTDFTFTISSLQPEDFATYYCQQANSWPLTFGGGTKVEIK
notes: domain: lower hinge, CH2, CH3; 12G3H11 IgG1/kappa; T223, H224, P227 and P228 deleted; not shown: human IgG1 heavy chain constant region, CH1 up to EU 215; human IgG1 heavy chain constant region from EU 231 (lower hinge, CH2, CH3); human kappa light chain constant region
B4: 12G3H11 Fc variant 13-2 AA Delete Mid (antibody, IgG1)
heavy (part 1 of 2): QMQLVQSGPEVKKPGTSVKVSCKASGFTFDDYSMNWVRQARGQRLEWIGFIRNKANDYTTEYADSVKGRVTITRDMSTSTAYMELSSLRSEDTAVYYCARYPRHHAMDSWGQGTSVTVSS
heavy (part 2 of 2): not shown
light: DIQMTQSPSSLSASVGDRVTITCRASQSISNNLHWYQQKPGKAPKLLIKYAFQSISGVPSRFSGSGSGTDFTFTISSLQPEDFATYYCQQANSWPLTFGGGTKVEIK
notes: domain: lower hinge, CH2, CH3; 12G3H11 IgG1/kappa; T223 and H224 deleted; not shown: human IgG1 heavy chain constant region, CH1 up to EU 215; human IgG1 heavy chain constant region from EU 231 (lower hinge, CH2, CH3); human kappa light chain constant region
B5: 12G3H11 Fc variant 14-T to C Middle (antibody, IgG1)
heavy (part 1 of 2): QMQLVQSGPEVKKPGTSVKVSCKASGFTFDDYSMNWVRQARGQRLEWIGFIRNKANDYTTEYADSVKGRVTITRDMSTSTAYMELSSLRSEDTAVYYCARYPRHHAMDSWGQGTSVTVSS
heavy (part 2 of 2): not shown
light: DIQMTQSPSSLSASVGDRVTITCRASQSISNNLHWYQQKPGKAPKLLIKYAFQSISGVPSRFSGSGSGTDFTFTISSLQPEDFATYYCQQANSWPLTFGGGTKVEIK
notes: domain: lower hinge, CH2, CH3; 12G3H11 IgG1/kappa; T223C; not shown: human IgG1 heavy chain constant region, CH1 up to EU 215; human IgG1 heavy chain constant region from EU 231 (lower hinge, CH2, CH3); human kappa light chain constant region
B6: 12G3H11 Fc variant 18-EPKS to PPPP (antibody, IgG1)
heavy (part 1 of 2): QMQLVQSGPEVKKPGTSVKVSCKASGFTFDDYSMNWVRQARGQRLEWIGFIRNKANDYTTEYADSVKGRVTITRDMSTSTAYMELSSLRSEDTAVYYCARYPRHHAMDSWGQGTSVTVSS
heavy (part 2 of 2): not shown
light: DIQMTQSPSSLSASVGDRVTITCRASQSISNNLHWYQQKPGKAPKLLIKYAFQSISGVPSRFSGSGSGTDFTFTISSLQPEDFATYYCQQANSWPLTFGGGTKVEIK
notes: domain: lower hinge, CH2, CH3; 12G3H11 IgG1/kappa; EPKS replaced by PPPP; not shown: human IgG1 heavy chain constant region, CH1 up to EU 215; human IgG1 heavy chain constant region from EU 231 (lower hinge, CH2, CH3); human kappa light chain constant region
B7: 12G3H11 Fc variant 6-GGG Insert High (antibody, IgG1)
heavy (part 1 of 2): QMQLVQSGPEVKKPGTSVKVSCKASGFTFDDYSMNWVRQARGQRLEWIGFIRNKANDYTTEYADSVKGRVTITRDMSTSTAYMELSSLRSEDTAVYYCARYPRHHAMDSWGQGTSVTVSS
heavy (part 2 of 2): not shown
light: DIQMTQSPSSLSASVGDRVTITCRASQSISNNLHWYQQKPGKAPKLLIKYAFQSISGVPSRFSGSGSGTDFTFTISSLQPEDFATYYCQQANSWPLTFGGGTKVEIK
notes: domain: lower hinge, CH2, CH3; 12G3H11 IgG1/kappa; GGG inserted between D(Kabat 234) and K222; not shown: human IgG1 heavy chain constant region, CH1 up to EU 215; human IgG1 heavy chain constant region from EU 231 (lower hinge, CH2, CH3); human kappa light chain constant region

target: T1, human EphA2-Fc (human, UniProt P29317 25-534, limits assumed); experiment: KinExA, EphA2-Fc beads, solution equilibrium titration
T1 construct: Coated on Azlactone beads and titrated in solution in KinExA; not shown: Fc part
T1 sequence (P29317 25-534 limits assumed): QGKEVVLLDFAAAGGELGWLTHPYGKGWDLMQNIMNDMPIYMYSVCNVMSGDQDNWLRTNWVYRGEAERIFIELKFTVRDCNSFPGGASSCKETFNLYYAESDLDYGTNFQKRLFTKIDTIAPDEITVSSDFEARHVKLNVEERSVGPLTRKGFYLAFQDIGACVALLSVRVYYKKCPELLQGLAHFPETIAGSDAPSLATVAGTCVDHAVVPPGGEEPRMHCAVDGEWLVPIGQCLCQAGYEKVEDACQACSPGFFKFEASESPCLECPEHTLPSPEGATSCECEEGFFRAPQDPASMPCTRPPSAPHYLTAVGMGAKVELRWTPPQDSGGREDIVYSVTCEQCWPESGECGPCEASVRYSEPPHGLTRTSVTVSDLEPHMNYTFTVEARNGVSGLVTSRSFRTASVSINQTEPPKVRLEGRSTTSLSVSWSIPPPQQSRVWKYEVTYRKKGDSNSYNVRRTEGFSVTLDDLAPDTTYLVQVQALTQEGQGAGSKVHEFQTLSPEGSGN
Protocol: Protein concentrations were calculated by the BCA method. […] Coated beads were then separated from unreacted EphA2-Fc using a gentle pulse spin and blocked for approximately 2 h at room temperature with 1 M Tris, pH 8.0, bovine serum albumin 10 mg/mL. Beads were then resuspended in 30 mL of run buffer (PBS, pH 7.4-0.02% NaN₃) and packed into a column. […] The amount of free IgG in the samples was derived from the fluorescence signal obtained after the passing of Cy5-labeled goat anti-human IgG F(ab′)₂ (typically 0.5-2 μg/ml; Jackson ImmunoResearch Laboratories, West Grove, Pa.) through the column.

B1 and B2 are within 1.5-fold of each other in Kd: 1.1 pM for the first, 0.8 pM for the second.

First: B3
Second: B4
The Kd of the first is lower: ≤ 1 pM for the first, 1.7 pM for the second. The first binds more tightly here.

First: B5
Second: B6
The Kd of the first is 4.8-fold higher: 7.2 pM for the first, 1.5 pM for the second.

B7 gave a Kd of 2.7 pM.

From patent US20110077383A1 (AstraZeneca / MedImmune, published 2011)
